Assays:
S. aureus LukF [1] = biological target: T1, S. aureus LukF (Staphylococcus aureus); assay: method not stated at Table 8; BLI (Octet) is described in Example 4
HlgAB [2] = biological target: T2, HlgAB (Staphylococcus aureus, UniProt P0A074 30-309); assay: cell-based or functional assay
T2 sequence 1: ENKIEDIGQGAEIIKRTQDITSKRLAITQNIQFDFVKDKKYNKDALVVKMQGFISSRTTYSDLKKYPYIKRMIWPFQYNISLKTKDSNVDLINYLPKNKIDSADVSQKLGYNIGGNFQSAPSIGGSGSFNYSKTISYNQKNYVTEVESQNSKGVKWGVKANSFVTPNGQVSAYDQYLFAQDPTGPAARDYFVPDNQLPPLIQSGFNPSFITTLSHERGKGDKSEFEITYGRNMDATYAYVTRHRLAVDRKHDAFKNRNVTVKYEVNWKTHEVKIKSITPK
T2 sequence 2: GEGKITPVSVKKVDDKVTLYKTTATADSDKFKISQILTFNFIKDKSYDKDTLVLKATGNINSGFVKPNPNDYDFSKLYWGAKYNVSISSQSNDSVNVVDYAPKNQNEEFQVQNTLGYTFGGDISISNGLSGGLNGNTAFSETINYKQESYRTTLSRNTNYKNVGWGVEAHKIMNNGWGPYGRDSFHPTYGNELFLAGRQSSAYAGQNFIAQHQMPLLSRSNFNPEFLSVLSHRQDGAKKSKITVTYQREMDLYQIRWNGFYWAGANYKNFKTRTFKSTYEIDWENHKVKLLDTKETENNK

LukSF [3] = biological target: T3, LukSF (Staphylococcus aureus); assay: cell-based or functional assay
HlgAB [4] = biological target: T2, HlgAB; assay: cell-based or functional assay; remark: listed apart in the source
LukSF [5] = biological target: T3, LukSF; assay: cell-based or functional assay; remark: listed apart in the source
HlgAB [6] = biological target: T2, HlgAB; assay: cell-based or functional assay; remark: listed apart in the source
LukSF [7] = biological target: T3, LukSF; assay: cell-based or functional assay; remark: listed apart in the source
LukED = LukED (Staphylococcus aureus, UniProt O54081 29-314); assay: cell-based or functional assay
HlgCB = biological target: T4, HlgCB (Staphylococcus aureus, UniProt Q07227 30-315); assay: cell-based or functional assay
T4 sequence 1: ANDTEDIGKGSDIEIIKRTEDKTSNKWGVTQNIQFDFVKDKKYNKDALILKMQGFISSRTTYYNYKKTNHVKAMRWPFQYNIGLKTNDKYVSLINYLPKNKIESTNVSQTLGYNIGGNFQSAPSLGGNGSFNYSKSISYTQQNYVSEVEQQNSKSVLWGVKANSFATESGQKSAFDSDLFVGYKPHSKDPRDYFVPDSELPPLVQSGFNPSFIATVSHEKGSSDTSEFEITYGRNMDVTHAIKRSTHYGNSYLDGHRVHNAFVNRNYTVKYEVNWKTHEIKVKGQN
T4 sequence 2: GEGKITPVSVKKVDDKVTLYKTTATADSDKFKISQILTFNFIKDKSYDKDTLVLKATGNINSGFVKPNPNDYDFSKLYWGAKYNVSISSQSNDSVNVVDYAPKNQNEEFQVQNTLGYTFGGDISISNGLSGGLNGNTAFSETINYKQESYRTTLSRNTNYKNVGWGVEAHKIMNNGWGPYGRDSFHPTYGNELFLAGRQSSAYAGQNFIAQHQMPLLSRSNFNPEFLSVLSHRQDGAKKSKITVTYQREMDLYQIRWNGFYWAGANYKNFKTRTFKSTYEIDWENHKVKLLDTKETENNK

LukSF [8] = biological target: T3, LukSF; assay: cell-based or functional assay; remark: listed apart in the source
S. aureus HlgB [9] = biological target: T5, S. aureus HlgB (Staphylococcus aureus, UniProt P0A075 27-325); assay: BLI (Octet384), antibody captured on anti-human IgG Fc biosensors, antigen in solution; dark sample
T5 construct: also called HIgB
T5 sequence: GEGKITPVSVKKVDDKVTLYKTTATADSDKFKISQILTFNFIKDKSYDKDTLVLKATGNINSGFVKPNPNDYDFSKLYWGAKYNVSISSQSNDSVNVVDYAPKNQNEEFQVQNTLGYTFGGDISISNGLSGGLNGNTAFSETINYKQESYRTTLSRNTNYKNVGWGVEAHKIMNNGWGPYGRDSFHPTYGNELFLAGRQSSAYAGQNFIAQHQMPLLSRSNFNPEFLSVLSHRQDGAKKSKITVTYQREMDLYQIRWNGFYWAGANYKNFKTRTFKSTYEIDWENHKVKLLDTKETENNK

S. aureus LukF [10] = biological target: T1, S. aureus LukF; assay: as above
S. aureus LukD [11] = biological target: T6, S. aureus LukD (Staphylococcus aureus, UniProt Q2FXB1 27-327); assay: as above
T6 sequence: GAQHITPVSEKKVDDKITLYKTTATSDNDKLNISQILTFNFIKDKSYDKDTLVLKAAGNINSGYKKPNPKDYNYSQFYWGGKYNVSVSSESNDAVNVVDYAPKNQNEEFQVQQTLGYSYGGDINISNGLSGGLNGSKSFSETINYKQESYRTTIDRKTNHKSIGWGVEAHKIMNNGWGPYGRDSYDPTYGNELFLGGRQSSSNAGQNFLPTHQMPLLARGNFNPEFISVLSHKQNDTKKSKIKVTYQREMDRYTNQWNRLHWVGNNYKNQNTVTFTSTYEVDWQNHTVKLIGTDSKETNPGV

S. aureus HlgB [12] = biological target: T5, S. aureus HlgB; assay: BLI (Octet384), antibody captured on anti-human IgG Fc biosensors, antigen in solution; light-stressed sample
S. aureus LukF [13] = biological target: T1, S. aureus LukF; assay: as above
S. aureus LukD [14] = biological target: T6, S. aureus LukD; assay: as above

B1: SAN481-T-YTE (antibody, V domains shown)
VH: QLQLVESGGGAVQPGRSLKLSCAASGFTFSTYAMHWVRQAPGRGLEWVAVTSFDGSNEYYIDSVKGRFTISRDNTKNTLYLQMTGLRVEDTALYFCARDEYTGGWYSVGYWGQGTLVTVSS
VL: QSVLTQPPSASGTPGQRVTISCSGNSYNIGSNSVYWYQQFPGTAPKLLISRSIQRPSGVPDRFSGSKSVTSASLAISGLRSEDEADYYCAAWDDSLRAWVFGGGTKLTVLG
notes: also called QD3; SAN481VH28T-YTE
**Q.** What does the source list for B1?
**A.** Kd (S. aureus LukF [1]): < 0.001 nM; IC50 (HIgAB) HL-60 (HlgAB [2]): 0.54 µg/mL; IC50 (LukSF) HL-60 (LukSF [3]): 0.17 µg/mL; IC50 (HIgAB) HL-60; Dark sample (HlgAB [4]): 0.707 µg/mL; IC50 (HIgAB) HL-60; Light sample (HlgAB [4]): 0.624 µg/mL; IC50 (LukSF) HL-60; Dark sample (LukSF [5]): 0.193 µg/mL; IC50 (LukSF) HL-60; Light sample (LukSF [5]): 0.205 µg/mL; IC50 Fold loss vs. WT (HIgAB) (HlgAB [6]): 0.948 fold; IC50 for HIgAB (HlgAB [6]): 0.539 µg/mL; IC50 Fold loss vs. WT (LukSF) (LukSF [7]): 1.04 fold; IC50 for LukSF (LukSF [7]): 0.166 µg/mL

B2: SAN481-SYT-YTE (antibody, V domains shown)
VH: QLQLVESGGGAVQPGRSLKLSCAASGFTFSTYAMHWVRQAPGRGLEWVAVTSFDGSNEYYIDSVKGRFTISRDNTKNTLYLQMTGLRVEDTALYFCARDEYTGGWYSVGYWGQGTLVTVSS
VL: QSVLTQPPSASGTPGQRVTISCSGSSYNIGSNYVYWYQQFPGTAPKLLISRSIQRPSGVPDRFSGSKSVTSASLAISGLRSEDEADYYCAAWDDSLRAWVFGGGTKLTVLG
notes: also called QD5
**Q.** What does the source list for B2?
**A.** IC50 (read off the curve) (LukED): ~4 µg/mL; IC50 (read off the curve) (HlgCB): ~2 µg/mL; IC50 (read off the curve) (LukSF [8]): ~0.4 µg/mL; Kd (S. aureus LukF [1]): 0.101 nM; IC50 (HIgAB) HL-60 (HlgAB [2]): 0.54 µg/mL; IC50 (LukSF) HL-60 (LukSF [3]): 0.16 µg/mL; IC50 (HIgAB) HL-60; Dark sample (HlgAB [4]): 0.576 µg/mL; IC50 (HIgAB) HL-60; Light sample (HlgAB [4]): 0.645 µg/mL; IC50 (LukSF) HL-60; Dark sample (LukSF [5]): 0.163 µg/mL; IC50 (LukSF) HL-60; Light sample (LukSF [5]): 0.184 µg/mL; Kd (S. aureus HlgB [9]): 0.0191 nM; koff (S. aureus HlgB [9]): 4.88e-06 s⁻¹; kon (S. aureus HlgB [9]): 255000 M⁻¹ s⁻¹; Kd (S. aureus LukF [10]): 0.101 nM; koff (S. aureus LukF [10]): 3.69e-05 s⁻¹; kon (S. aureus LukF [10]): 365000 M⁻¹ s⁻¹; Kd (S. aureus LukD [11]): < 0.001 nM; koff (S. aureus LukD [11]): < 1e-07 s⁻¹; kon (S. aureus LukD [11]): 279000 M⁻¹ s⁻¹; IC50 Fold loss vs. WT (HIgAB) (HlgAB [6]): 0.951 fold; IC50 for HIgAB (HlgAB [6]): 0.54 µg/mL; IC50 Fold loss vs. WT (LukSF) (LukSF [7]): 1.01 fold; IC50 for LukSF (LukSF [7]): 0.162 µg/mL; Kd (S. aureus HlgB [12]): < 0.001 nM; koff (S. aureus HlgB [12]): < 1e-07 s⁻¹; kon (S. aureus HlgB [12]): 244000 M⁻¹ s⁻¹; Kd (S. aureus LukF [13]): < 0.001 nM; koff (S. aureus LukF [13]): < 1e-07 s⁻¹; kon (S. aureus LukF [13]): 257000 M⁻¹ s⁻¹; Kd (S. aureus LukD [14]): < 0.001 nM; koff (S. aureus LukD [14]): < 1e-07 s⁻¹; kon (S. aureus LukD [14]): 263000 M⁻¹ s⁻¹

B3: SAN481-TF-YTE (antibody, V domains shown)
VH: QLQLVESGGGAVQPGRSLKLSCAASGFTFSTYAMHWVRQAPGRGLEWVAVTSFDGSNEYYIDSVKGRFTISRDNTKNTLYLQMTGLRVEDTALYFCARDEYTGGFYSVGYWGQGTLVTVSS
VL: QSVLTQPPSASGTPGQRVTISCSGNSYNIGSNSVYWYQQFPGTAPKLLISRSIQRPSGVPDRFSGSKSVTSASLAISGLRSEDEADYYCAAWDDSLRAWVFGGGTKLTVLG
notes: also called QD4; SAN481-VH28T100E-YTE
**Q.** Which results are given for B3?
**A.** Kd (S. aureus LukF [1]): 1.21 nM; IC50 (HIgAB) HL-60 (HlgAB [2]): 0.44 µg/mL; IC50 (LukSF) HL-60 (LukSF [3]): 0.81 µg/mL; IC50 Fold loss vs. WT (HIgAB) (HlgAB [6]): 0.775 fold; IC50 for HIgAB (HlgAB [6]): 0.441 µg/mL; IC50 Fold loss vs. WT (LukSF) (LukSF [7]): 5.07 fold; IC50 for LukSF (LukSF [7]): 0.811 µg/mL
